Measured values published in patent US11072647B2, “TGF-receptor II isoform, fusion peptide, methods of treatment and methods in vitro” (Onsejo Nacional DE Investigation Cientiticay Tecnica, priority 2013, dated 2021).

Test system: A549 cells
Assay: MTT proliferation assay in transduced A549 cells with TGFβ-1
Assay type: cell-based, human
Method: Additionally, to check whether TβRII-SE acts as a TGFβ-1 agonist, A459 cells either overexpressing TβRII-SE or not (untransduced cells or UT) were incubated in the presence of increasing concentrations of TGFβ-1 (FIG. 10B). […] However, in cells overexpressing TβRII-SE, proliferation started to decrease at a TGFβ-1 concentration of 0.1 nM compared to the same cell line without the addition of TGF-β1.
A549 cells were transduced with lentiviral vectors at a multiplicity of infection (MOI) of 50 in the presence of 8 μg/ml polybrene. Percentage of eGFP positive cells was measured in a FACscalibur (Becton Dikinson) cytometer.
Cells were harvested, counted, and inoculated at the appropriate concentrations into 96-well plates using a multichannel pipette. After 24 hr, TGF-β1 (10 ng/ml and 20 ng/ml; Sigma) was added to the culture wells, and cultures were incubated for 24 hr and 48 hr at 37° C., under an atmosphere of 5% CO2. MTT (3-(4,5-dimethylthiazol-2-yl)-2,5-diphenyltetrazolium bromide) (Sigma) solution at a concentration of 5 mg/ml was added to the media and the cells were further incubated for 4 hr. After replacing 100 μl of supernatant with 100 μl of DMSO, the absorbance of each well was determined at 540 nm with a SEAC (Sirio S) photometer (Italy). The percentage of cell survival was defined as the relative absorbance of treated versus untreated cells.

B1: TβRII-SE: 80 amino acid soluble endogenous isoform of human TGF-β receptor II lacking the transmembrane domain, SEQ ID No. 2 (protein, listed as Homo sapiens)
chain: MGRGLLRGLWPLHIVLWTRIASTIPPHVQKSVNNDMIVTDNNGAVKFPQLCKFCDVRFSTCDNQKSCFSKVHYEGKKKAW
Cells overexpressing TβRII-SE, increasing TGFβ-1 concentrations (UT cells: 0.2 nM)
  TGFβ-1 concentration at which proliferation started to decrease: 0.1 nM
Transduced A549 cells, 0.4 nM TGFβ-1 vs untreated
  cell proliferation (MTT): proliferate significantly less than the same cells not treated with TGFβ-1
